Assay [1] concerns the target T1, HER2 (human, UniProt P04626). Kind of assay: BLI, 30C, E. coli-expressed.
Assay [2] deals with T1, HER2. Kind of assay: BLI, 30C, ExpiCHO-expressed.

In patent publication US20260327336 (published 2026) one finds Kd data, which are given here for one molecule.

B1: LH_S-C (antibody)
chain 1: EVQLVESGGGLVQPGGSLRLSVAASGFNIKDTYIHWVRQAPGKGLEWVARIYPTNGYTRYADSVKGRFTISADTSKNTAYLQMNSLRAEDTAVYYASRWGGDGFYCMDYWGQGTLVTVSS
chain 2: not shown
Take B1: the Kd in assay [1] was 1.5 nM; in assay [2], 0.28 nM.
